Here are results for one molecule from US11839630B2, “CAR-T cells targeting IL-1RAP and their use” (ETABLISSEMENT FRANCAIS DU SANG, priority 2017, dated 2023).

One assay concerns the target T1, IL-1RAP (Homo sapiens, UniProt Q9NPH3).
T1 sequence (Q9NPH3 21-570): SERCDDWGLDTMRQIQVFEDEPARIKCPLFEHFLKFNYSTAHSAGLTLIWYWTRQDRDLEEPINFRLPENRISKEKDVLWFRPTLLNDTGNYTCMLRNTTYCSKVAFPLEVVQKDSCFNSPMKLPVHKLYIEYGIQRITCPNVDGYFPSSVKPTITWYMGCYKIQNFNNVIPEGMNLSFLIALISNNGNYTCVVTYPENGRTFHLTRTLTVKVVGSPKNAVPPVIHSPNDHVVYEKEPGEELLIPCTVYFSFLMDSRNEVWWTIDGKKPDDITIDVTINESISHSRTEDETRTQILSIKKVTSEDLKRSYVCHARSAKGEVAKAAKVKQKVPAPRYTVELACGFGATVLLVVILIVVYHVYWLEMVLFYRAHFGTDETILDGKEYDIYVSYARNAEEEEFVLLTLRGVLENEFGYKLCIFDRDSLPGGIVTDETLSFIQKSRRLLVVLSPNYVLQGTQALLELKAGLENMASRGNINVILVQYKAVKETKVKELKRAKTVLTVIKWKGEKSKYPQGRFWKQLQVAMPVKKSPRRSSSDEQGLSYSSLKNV
The experiment in a line: Western blot with #E3C3 mAb. To be noted: leukemic cell line lysates; #E3C3 diluted 1:10^3. The class given is binding. The text has this:
FIG. 1: Use of #E3C3 mAb in western blot. The leukemic cell lines KU812, KG-1, Nalm-20, Jurkat, and Raji are used. Transfected HT1080 cell line with IL-1RAP cDNA variant was used as control. […] Line a: detection of IL-1RAP (72 kDA), Line b: detection of the control actin (43 kDA), *: weak signal.
Whole-cell, subcellular or secreted protein fractions of cells listed in example 1 were obtained after sonication and suspended in RIPA lysis and extraction buffer (ThermoFisher Scientific) supplemented with a protease inhibitor cocktail (complete Mini EDTA-free; Roche, Switzerland). Transfected HT1080 cell line with IL-1RAP cDNA variant 1 (NM_002182.2, NCBI) was used as control. […] Transferred proteins on PDVF membranes were probed overnight with either primary IL-1RAP #E3C3 (diluted at 1:10^3), CD3zeta (BD Pharmigen, clone #8D3) or β-actin (1:10^3, clone AC15, #A5441, Sigma-Aldrich) respectively for IL-1RAP, CAR or β-actin expression. Immunodetection staining was performed with a secondary polyclonal antibody sheep anti-mouse IgG (#515-035-062, Jackson, USA). Detection was performed with a camera and Bio-1D software (Vilber-Lourmat, Collegien, France).

The subject of a further assay is monocyte subpopulation. Briefly: IL-1RAP cell surface staining of healthy donor monocytes. The class given is binding, human. To be noted: 2/5 peripheral blood and 3/5 bone marrow from healthy donors. The method, then: FIG. 23: Effect of IL-1RAP CAR T cells on healthy hematopoietic cells and efficiency of the safety suicide gene iCASP9 cassette. (A) IL-1RAP cell surface expression on peripheral blood (left) or bone marrow (right) cells from healthy donors (n=5). SSC-A/CD45+ allowed discrimination of subpopulations as lymphocytes (SSC-A low), monocytes (CD33+), granulocytes (SSC-A high), or HSCs (CD33−/CD34+). RFI was calculated from isotype staining and provided in each window. (B) Representative (1 of 3) IL-1RAP staining of whole human cord blood cells. IL-1RAP staining is provided for whole CD34+, CD34+/CD38−, and CD34+/CD38+ HSC cord blood subpopulations. […] Percentages were calculated using absolute cell number determined using Trucount™ tubes based on 5000 fluorescent-bead cytometry acquisition. […] The quantification was performed after acquiring 5000 fluorescent beads. […] Cell killing was calculated as follows: % Dead cells=[1−(absolute number of viable cells in AP1903-treated cells/absolute number of viable cells in untreated cells)]×100. […] (G) Absolute quantification of IL-1RAP CAR T cells injected in a tumor (CML KU812, i.v.) xenograft NSG model 24 h after i.p. AP1903 (white bars) treatment (n=3 mice/group). […]

Assay [1] has as its system IL-1RAP+ leukemia expressing stem cells CD34+CD38+ or CD34+CD38-. The experiment in a line: Flow cytometry immunophenotyping of primary cells from CML patients. The settings on record: bone marrow or peripheral blood of patient at diagnosis or after 12 months of Imatinib. The class given is binding, human. The text has this:
FIG. 3: Immunophenotyping on peripheral blood (PM) or bone marrow (BM) of 2 CML positive patients at diagnosis (Diag) or after Imatinib (IM) treatment. IL-1RAP (#E3C3) was used in combination with CD34+ and CD38− fluorescent staining. Fluorochrome-conjugated isotype control mAbs from the different mAbs were systematically used.
Hematopoietic stem cells from CML patients were tracked using a panel of CD45, CD34, CD38, CD33, CD133, CD117 including murine Alexa Fluor® 488 labelled IL-1RAP antibody clone #E3C3. Transduced cells were stained using a panel of antibodies including CD3, CD4, CD8, and CD19 in order to differentiate helper or cytotoxic GMTC. Naïve, central or memory T cells subsets were analyzed using a panel of CD45RA, CD62L, CD95, CCR7 monoclonal antibodies. Cells were collected using a FACSCANTO™ II cytometer (BD Biosciences, Le Pont de Claix, France) and analyzed using the DIVA 6.1 software (BD Biosciences, Le Pont de Claix, France).
Immunophenotyping on peripheral blood or bone marrow of 2 CML-positive patients without or after Imatinib (TKI) treatment has been performed. IL-1RAP (#E3C3) was used in combination with CD34^+ and CD38^− fluorescent staining. Fluorochrome-conjugated isotype control monoclonal antibodies from the different monoclonal antibodies were systematically used.

B1: #E3C3: mouse anti-hIL-1RAP monoclonal antibody subclone generated by standard hybridoma technique; VH SEQ ID NO: 2, VL SEQ ID NO: 4 (antibody, V domains shown)
VH: MGWSCIILFLVATATGVNSQVQLQQPGAELMMPGASVKVSCEASGYTFTDSWMHWVKQRPGQGLEWIGAIDPSDSYTTYNQKFTGKATLSVDESSNTAYMQLSSLTSEDSAVYYCARYYSGSNYISPFPYWGQGTLVTVSA
VL: MESQIQVFVFVFLWLSGVDGDIVMTQSHKFMSTSVGDRVTITCKASLDVSTAVAWYQQKPGQSPKLLIYSASYRYTGVPDRFTGSGSGTDFTFTISSVQAEDLAVYYCQQHYSPPFTFGSGTNLEIK
modifications: Amino acid sequence of chain H (VH) of murine scFv anti-IL-1RAP; Amino acid sequence of chain K (VL) of murine scFv anti-IL-1RAP
For the molecule B1, the “detection in western blot” value with IL-1RAP is on record as “reveals KU812”. Also, the “RFI of monocyte staining (weak staining)” value in the assay with monocyte subpopulation is listed as less than 2. Also, in assay [1], the “discrimination of IL-1RAP+ stem cell subpopulations” value was “allowed to discriminate IL-1RAP+ leukemia expressing stem cells”.
